Experimental data reported in article PMC7933101 (Proteins, 2020).
Where “and” joins values, the source holds several entries; their conditions need not be identical. Identical values can stand only once.

B1: Granulin-5 (GRN-5) (natural protein, UniProt P28799 364-417, looked up)
chain: VPCDNVSSCPSSDTCCQLTSGEWGCCPIPEAVCCSDHQHCCPQGYTCVAEGQCQ
B2: Granulin-3 (GRN-3) (natural protein, UniProt P28799 206-261, looked up)
chain: VMCPDARSRCPDGSTCCELPSGKWGCCPMPNATCCSDHLHCCPQDTVCDLIQSKCL

Columns and labels:
non-reducing PAGE = target: the molecule itself; assay: non-reducing PAGE
[1] = target: the molecule itself; assay: PAGE under denaturing, non-reducing conditions

Protein | binding result (non-reducing PAGE) | stoichiometry N [1] | stoichiometry N (non-reducing PAGE)
B1 | binds | – | –
B2 | – | ≤ 4 | 2 and 3
